{
  "source": "paper PMC12345223",
  "binders": {"B1": {"name": "ChARG1 promoter probe (dsDNA)", "DNA 1": "AAGACAGTGGTGGAGATCAAGTTGGATGAGTAACTTGGCGCTGCACTCGATTCGCGTGTT", "DNA 2": "CCAACTTGATCTCCACCACTGTCTT"}, "B2": {"name": "ChARG4 promoter probe (dsDNA)", "DNA 1": "CATTGGCGTTTGGGACTGAATTACAATGAGTAATGAAATAACTCACACCACAAAGCAGTA", "DNA 2": "TACTGCTTTGTGGTGTGAGTTATTTCATTACTCATTGTAATTCAGTCCCAAACGCCAATG"}, "B3": {"name": "ChATG5 promoter probe (dsDNA)", "DNA 1": "CAGCTATGTTGCGTTAGTAAGTCACCCATCTACGCTGTCGC", "DNA 2": "GCGACAGCGTAGATGGGTGACTTACTAACGCAACATAGCTG"}, "B4": {"name": "ChATG9 promoter probe (dsDNA)", "DNA 1": "GCGGCGCGTCACCTGCATGAGTCCCATGTCGATGAGGCGCT", "DNA 2": "AGCGCCTCATCGACATGGGACTCATGCAGGTGACGCGCCGC"}, "B5": {"name": "ChATG8 promoter probe (dsDNA)", "DNA 1": "GGAGAGCGTGAAGGAGAGAGACGGGATGAGTCAAAGTACCCAGGTAGCCAGGTCATGGGA", "DNA 2": "TCCCATGACCTGGCTACCTGGGTACTTTGACTCATCCCGTCTCTCTCCTTCACGCTCTCC"}, "B6": {"name": "ChATG7 promoter probe (dsDNA)", "DNA 1": "TCCCAAATGTCGGTCGTGACCCATCGTTCCCTCCATCTCA", "DNA 2": "TGAGATGGAGGGAACGATGGGTCACGACCGACATTTGGGA"}},
  "key": {"ChCpc1 [1]": {"target": "T1, ChCpc1 (Cochliobolus heterostrophus C4 (Tox1+, …, UniProt M2T2C6 1-465))", "T1 sequence": "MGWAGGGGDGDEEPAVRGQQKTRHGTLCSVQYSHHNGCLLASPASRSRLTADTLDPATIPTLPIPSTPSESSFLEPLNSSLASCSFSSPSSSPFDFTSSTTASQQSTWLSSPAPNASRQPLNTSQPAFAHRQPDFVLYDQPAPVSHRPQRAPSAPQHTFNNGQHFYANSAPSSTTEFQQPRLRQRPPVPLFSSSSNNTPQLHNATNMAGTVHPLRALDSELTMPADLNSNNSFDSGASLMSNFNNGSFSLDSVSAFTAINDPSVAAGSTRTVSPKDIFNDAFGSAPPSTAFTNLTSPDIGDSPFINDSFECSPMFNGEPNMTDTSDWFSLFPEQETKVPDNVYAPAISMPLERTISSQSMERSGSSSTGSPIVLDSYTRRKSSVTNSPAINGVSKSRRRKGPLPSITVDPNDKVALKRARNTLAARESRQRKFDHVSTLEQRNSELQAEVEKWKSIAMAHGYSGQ", "assay": "EMSA; 100x unlabeled competitor prevents binding; Light Shift Chemiluminescent EMSA Kit (Beyotime), 20 min at 25°C; 6.5% polyacrylamide gel, 0.5x TBE; binding buffer, salt and pH not stated", "conditions": "protein: recombinant, tags: His (pET-32a), chain copies: 2, label: biotin (on forward strand)"}, "ChAtf1": {"target": "T2, ChAtf1 (Cochliobolus heterostrophus C4 (Tox1+, …, UniProt M2TIN4 1-567))", "T2 sequence": "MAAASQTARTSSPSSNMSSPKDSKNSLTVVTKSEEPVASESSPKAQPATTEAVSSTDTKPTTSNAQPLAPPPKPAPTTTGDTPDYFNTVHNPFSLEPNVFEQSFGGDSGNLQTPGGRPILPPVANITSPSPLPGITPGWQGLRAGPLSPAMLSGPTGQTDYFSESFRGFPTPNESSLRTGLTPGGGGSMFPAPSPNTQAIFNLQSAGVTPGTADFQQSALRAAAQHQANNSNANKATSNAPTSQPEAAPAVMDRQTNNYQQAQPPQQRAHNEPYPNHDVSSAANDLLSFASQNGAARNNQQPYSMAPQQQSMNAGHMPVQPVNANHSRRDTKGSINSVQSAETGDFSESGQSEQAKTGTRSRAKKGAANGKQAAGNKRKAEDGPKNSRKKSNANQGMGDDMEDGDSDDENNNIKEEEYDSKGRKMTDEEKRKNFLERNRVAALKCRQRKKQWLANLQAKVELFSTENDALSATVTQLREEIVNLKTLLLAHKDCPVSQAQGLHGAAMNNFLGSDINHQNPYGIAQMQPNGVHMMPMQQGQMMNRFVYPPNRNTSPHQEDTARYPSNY", "assay": "EMSA; ChAtf1 alone; Light Shift Chemiluminescent EMSA Kit (Beyotime), 20 min at 25°C; 6.5% polyacrylamide gel, 0.5x TBE; binding buffer, salt and pH not stated", "conditions": "protein: recombinant; tags: His (pET32a); chain copies: 2; label: biotin (on forward strand); blunt"}, "ChCpc1 [2]": {"target": "T1, ChCpc1", "assay": "EMSA; Light Shift Chemiluminescent EMSA Kit (Beyotime), 20 min at 25°C; 6.5% polyacrylamide gel, 0.5x TBE; binding buffer, salt and pH not stated", "conditions": "protein: recombinant; tags: His (pET-32a); chain copies: 2; label: biotin (on forward strand); blunt"}, "ChCpc1 [3]": {"target": "T1, ChCpc1", "assay": "EMSA; strongest of the four ATG probes; Light Shift Chemiluminescent EMSA Kit (Beyotime), 20 min at 25°C; 6.5% polyacrylamide gel, 0.5x TBE; binding buffer, salt and pH not stated", "conditions": "protein: recombinant; tags: His (pET-32a); chain copies: 2; label: biotin (on forward strand); blunt"}},
  "data": [
    {"binder": "B1", "values": [
      {"measurement": "binding result", "setting": "ChCpc1 [1]; printed reverse oligo (25 nt) pairs only with nt 1-25 of the 60-nt forward strand, possibly printed incomplete", "result": "binds"}
    ]},
    {"binder": "B2", "values": [
      {"measurement": "binding result", "setting": "ChCpc1 [1]; blunt", "result": "binds"},
      {"measurement": "binding result", "setting": "ChAtf1", "result": "no binding"}
    ]},
    {"binder": "B3", "values": [
      {"measurement": "binding result", "setting": "ChCpc1 [2]", "result": "binds"}
    ]},
    {"binder": "B4", "values": [
      {"measurement": "binding result", "setting": "ChCpc1 [3]", "result": "binds"}
    ]},
    {"binder": "B5", "values": [
      {"measurement": "binding result", "setting": "ChAtf1", "result": "no binding"},
      {"measurement": "binding result", "setting": "ChCpc1 [2]", "result": "binds"}
    ]},
    {"binder": "B6", "values": [
      {"measurement": "binding result", "setting": "ChCpc1 [2]", "result": "binds"}
    ]}
  ]
}
